# Assays:
# [1] = target: T1, α-actin from rabbit skeletal muscle (rabbit, UniProt P68135 1-377); experiment: co-sedimentation; details: both partners purified
# [2] = target: T1, α-actin from rabbit skeletal muscle; experiment: co-sedimentation; as a6, F-actin with 6 μM phalloidin; details: both partners purified
binder,measurement,setting,value
"MBP-ExoY^K81M-ST (enzyme, also called His-MBP-ExoY^K81M-ST; source: expressed from pEA12 (Ptac promoter); purified under non-denaturing conditions (HisTrap, StrepTrap, Superdex 200); not shown: His-tag, N-terminal, kept; MBP, N-terminal, kept; Strep-tagII, C-terminal, kept) MRIDGHRQVVSNATAQPGPLLRPADMQARALQDLFDAQGVGVPVEHALRMQAVARQTNTVFGIRPVERIVTTLIEEGFPTMGFSVKGKSSNWGPQAGFICVDQHLSKREDRDTAEIRKLNLAVAKGMDGGAYTQTDLRISRQRLAELVRNFGLVADGVGPVRLLTAQGPSGKRYEFEARQEPDGLYRISRLGRSEAVQVLASPACGLAMTADYDLFLVAPSIEAHGSGGLDARRNTAVRYTPLGAKDPLSEDGFYGREDMARGNITPRTRQLVDALNDCLGRGEHREMFHHSDDAGNPGSHMGDNFPATFYLPRAMEHRVGEESVRFDEVCVVADRKSFSLLVECIKGNGYHFTAHPDWNVPLRPSFQEALDFFQRKV",Kd,[1],1600 ± 300 nM
same,stoichiometry N,[1],1
same,Kd,[2],1600 to 1800 nM

# From publication PMC5150216, “Actin activates Pseudomonas aeruginosa ExoY nucleotidyl cyclase toxin and ExoY-like effector domains from MARTX toxins” (Nature Communications, 2016)
